Where two headings read alike, the source gives them in different places.
Tests used:
[1] = biological target: T1, His-MT-SP1 protease domain (Homo sapiens, UniProt Q9Y5Y6); test: Substrate kinetics of purified His-MT-SP1 protease domain; type: biochemical
T1 construct: made in house; host or cells: E. coli X-90 (pQE30 vector)
Method: The purified serine protease domain was titrated with 4-methylumbelliferyl p-guanidinobenzoate (MUGB) to obtain an accurate concentration of enzyme active sites^(iii). Enzyme activity was monitored at 25° C. in assay buffer containing 50 mM Tris pH 8.8, 50 mM NaCl, and 0.01% Tween 20. The final concentration of substrate Spectrozyme tPA ranged from 1 μM–400 μM. Enzyme concentrations ranged from 40 pM–800 pM. Active site titrations were performed on a Fluoromax-2 spectrofluorimeter. Measurements were plotted using the KaleidaGraph program (Synergy, Reading, Pa.), and the Km, kcat, and kcat/Km for Spectrozyme tPA was determined using the Michaelis-Menten equation.

[2] = biological target: T2, uPA (Homo sapiens, UniProt P00749); conditions: cited from earlier work
[3] = tested on: tumor; test: Ecotin injected intraperitoneally, tumor growth; type: in vivo
[4] = biological target: T3, His-tagged MT-SP1 serine protease domain (Homo sapiens, UniProt Q9Y5Y6); test: Inhibition of MT-SP1 protease domain with ecotin and ecotin M84R/M85R; type: biochemical
T3 construct: made in house; host or cells: E. coli X-90 (pQE30 vector)
T3 sequence (Q9Y5Y6 615-855 limits assumed, other chains not shown): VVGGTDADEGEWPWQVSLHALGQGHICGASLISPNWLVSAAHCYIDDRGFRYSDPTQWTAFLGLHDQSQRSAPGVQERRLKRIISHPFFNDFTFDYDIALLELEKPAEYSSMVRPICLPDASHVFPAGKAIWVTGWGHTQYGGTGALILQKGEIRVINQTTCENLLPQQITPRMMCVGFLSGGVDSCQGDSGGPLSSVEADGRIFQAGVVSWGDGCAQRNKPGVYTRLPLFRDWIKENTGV
Method: Ecotin and ecotin M84R/M85R were purified from E. coli as described in copending application Ser. Nos. 09/290,513 and 09/289,830, both filed on Apr. 12, 1999. Various concentrations of ecotin or ecotin M84R/M85R were incubated with the His-tagged serine protease domain in a total volume of 990 μL of buffer containing 50 mM NaCl, 50 mM Tris-HCl (pH 8.8), 0.01% Tween 20. 10 μL of Spectrozyme tPA was added, yielding a solution containing 100 μM substrate. The final enzyme concentration was 63 pM, and the ecotin and ecotin M84R/M85R concentration ranged from 0.1 nM to 50 nM. The data were fit to the equation derived for kinetics of reversible tight-binding inhibitors (Morrison (1969) Biochim. Biophys. Acta 185: 269–286, Williams and Morrison (1979) Methods. Enzymol. 63: 437–467), and the values for apparent Ki were determined.

[5] = tested on: PC-3 cells; test: Subcutaneous coinjection of PC-3 cells with inhibitor; type: in vivo; conditions: subcutaneous coinjection with PC-3 cells, compared to PC-3 cells and saline
[6] = tested on: PC-3 primary tumor; test: PC-3 implanted nude mice, inhibitor treatment; type: in vivo; conditions: treated seven weeks, compared to PBS-treated mice after four weeks
From the text: Another well characterized model that is derived from human prostate cancer epithelial cells is the PC-3 cell line (Kaighn et al. (1979) Invest. Urology 17: 16–23). The PC-3 cell line expresses uPA as assayed by enzyme-linked immunosorbent assay (ELISA) and by Northern blotting of PC-3 mRNA (Yoshida et al. (1994) Cancer Res. 54: 3300–3304). […] Metastasis from the primary tumors similarly were similarly lower in the inhibitor-treated mice compared to PBS treated mice. Inhibition was not unexpected with ecotin M84R/M85R treatment, since uPA has been implicated in metastasis. […] Thus identification of the serine proteases expressed by PC-3 prostate cells may provide insight into the role of these proteases in cancer and prostate growth and development. In this example we have extended the strategy of using the polymerase chain reaction (PCR) with degenerate oligonucleotide primers that were designed using conserved sequence homology (Sakanari et al. (1989) Proc. Natl. Acad. Sci. USA 86: 4863–4867; Wiegand et al. (1993) Gene 136: 167–175, Kang et al. (1992) Gene 110: 181–187) to identify additional serine proteases made by cancer cells. […]

[7] = tested on: explanted rat VP; test: Rodent ventral prostate (VP) explant culture; type: cell-based; conditions: for ductal branching morphogenesis and differentiation of rat ventral prostate: explant culture, testosterone-induced
From the text: One useful model system for studying many issues that are pertinent to prostate cancer is the development of the rodent ventral prostate (VP) in explant cultures. Macromolecular inhibitors of serine proteases of the chymotrypsin fold, ecotin and ecotin M84R/M85R (see copending application Ser. Nos. 09/290,513 and 09/289,830, both filed on Apr. 12, 1999), inhibit ductal branching morphogenesis and differentiation of the explanted rat VP. […] Thus unidentified serine proteases may play a role in growth and prevention of apoptosis in prostate epithelial cells in this system.

[8] = biological target: T2, uPA; test: Inhibition of uPA; type: biochemical

T1 sequence (Q9Y5Y6 615-855 limits assumed, other chains not shown): as above

| Molecule | hydrolysis of pNA substrate by the MT-SP1 protease domain [1] | inhibition of uPA, in words [2] | inhibitor potency against uPA [2] [nM] | tumor growth [3] | inhibition of MT-SP1, in words [4] | primary tumor size [5] | primary tumor size [6] | apoptosis in rat ventral prostate model [7] | ductal branching morphogenesis and differentiation of rat ventral prostate [7] | kcat [1] [s⁻¹] | Km ([1]; 25° C., 50 mM Tris pH 8.8, 50 mM NaCl, 0.01% Tween 20) [µM] | kcat ([1]; 25° C., pH 8.8) | fold more potent inhibitor of uPA compared to ecotin [8] [fold] |
| --- | --- | --- | --- | --- | --- | --- | --- | --- | --- | --- | --- | --- | --- |
| NC(N)=NCCC[C@H](N)C(=O)Nc1ccc([N+](=O)[O-])cc1 [H-Arg-pNA, arginyl-pNA] | does not cleave |  |  |  |  |  |  |  |  |  |  |  |  |
| ecotin: Macromolecular inhibitor of serine proteases of the chymotrypsin fold, purified from E. coli |  | poor, micromolar inhibitor | 2800 | inhibited | potent, subnanomolar inhibitors | decrease | significantly smaller | enhances | inhibits |  |  |  |  |
| hexahydrotyrosyl-Gly-Arg-pNA [Spectrozyme tPA] |  |  |  |  |  |  |  |  |  | 260 | 31.4 ± 4.2 | 2.6×10^2±6.5 s^−1 |  |
| ecotin M84R/M85R: Engineered version of ecotin, macromolecular inhibitor of chymotrypsin-fold serine proteases (protein) AESVQPLEKIAPYPQAEKGMKRQVIQLTPQEDESTLKVELLIGQTLEVDCNLHRLGGKLENKTLEGWGYDYYVFDKVSSPVSTRRACPDGKKEKKFVTAYLGDAGMLRYNSKLPIVVYTPDNVDVKYRVWKAEEKIDNAVVR |  |  | 1 |  | potent, subnanomolar inhibitors | decrease | significantly smaller | enhances | inhibits |  |  |  | 2800 |

Reference: patent publication US7227009B2, “MT-SP1 polynucleotides and polypeptides” (Catalyst Biosciences, Inc., priority 1999, dated 2007)
